This data set is described as follows: soluble on expression in E. coli; label from the status in PepcDB or PDB records.
With “MSLKYGGIIMKEILVIAPTKGTYEKSIHIVKKNKYKTIDVVFGNLKEGIPLAEKSINHGTRIIISRGGTYNMLKATYNIPIVEIKVDAYDIIKSYKEVKNSNEPFGIIGFNNVIYGFDIIEEILNKKITMIEIEKEEEIYDAIEKYRKKGINTYIGDTTVAHIVKRLNCKGILIESREENILRAIQQAEQILEATKDEQKRRLQIEAMTDFVHDGIITVDKNFKITLFNKSAEKIFGIKKENALYHNVVDVIPNTVLPQVVETMEPQIGEIQNIGSTKIITNRVPIIVDGQIQGAVSTFQDSKEISSFEHTIRRSLLSKGLSAEGHHHHHH”, the “soluble on expression in E. coli” value is “soluble”.

As to “MSLEMTIAYIQENPYRLADEISGIGFKKADQIARAMGISLNSKYRIHSGIKYMLGTFHGEGHTYAPGDILIDRTRELLSVEESEVVEGIQELALKQKIQLERQDEEIIVYSMPYFYAETNTCNKLIELSQVELEPLEIDVDYEIESIEKEDGIALATNQKEAIRQSIENGIIVITGGPGTGKTTIINTLIKVFGKLKKKILLAAPTGRASKRMTEATGKEAKTIHRLLEMGYSDDDDGMLFQRNEENPLPADIIIIDEVSMVDIMLMNSLLKAISVGTRLIFVGDVDQLPSVGAGNVLRDIIDSKIIKVVRLNEIFRQAEESMIVVNAHKINKGEYPILNHKDKDFYFMSRSRSEDILNTIIGLVKERLPKHYKFDPIKDIQVLTPMKKGEVGSINLNKELQNYLNPPDKYKREKELREKVFRVGDKVMQIKNNYTLKWASLDPDTEERQGEGVFNGDMGYIQHINPEAQELTVFFDDNRSVVYTYTQLDELELAYAITIHKSQGSEFPVVVMPVTWGPPMLLTRNLLYTAITRARSLVVLVGTENYLNLMVSNNKIVERYSGLGIRLKKFYNEGHHHHHH”, the “soluble on expression in E. coli” value was “soluble”.

Consider “TEELHKIEDIIRIFNDCFSQEYNTRLAKGGDYPIYLPAYRAENNTPSDRPYHVILFAHGYYSSALHEIAHWLVAGTARRQLEDFGYWYEPDGRSAEQQREFETVEVKPQAIEWILATAADFRYFASADNLSGNAGDNSAFKQAVYQQVKIYANRGYLPKRAEKLRQALAKFYGTTDQINLANFEIT”, for which the “soluble on expression in E. coli” value was “not soluble”.

With “LKQQQQQQQQQQQQQQQQQQQQQQQQQQQQQQQQQQQQQQQQQQQQQQQQQQQQQQQQQQQQQQQQQQKSQNRTKQEQGQQSQNQQDAENKKEKQESEHKAKQQKAETEVEKQGEQKKGEPMQAQAQPEKSHQDDPEFRRLEAVESARDPSFLIRAQMQLQAQQKQRPQQSQKEW”, the “soluble on expression in E. coli” value was “not soluble”.

On to “MSLNPRLFSPHIIRSLLDLDAYKINMMQAIHHFYPDVSVRYELIVRSEEDASGLLDAIRQEIAHLGTLRFSDADIHYLTQHAPHLKATFLQSLRYFHFVPQEQVEMGIVKQGGKQQLRISIRGSWRDTILYETLVMAIVSEVRSRQRWAEVPADLPLKVLKTKLDQLKAEIERRGINNFSLTEMGTRRRFSSQVQRDVLACLKQEIPQWVLGTSNYHFAREFDLKPIGTIAHEWFMGHQALVNERDSQQVALERWLTAFDGMLAIAPTDTLTIDAFLNDFNRHLANAYDGVRHDSGCPFRWGDKMIAHYQQLGIDPTTKLFIFSDGLDFDQALELCEYFAGRVKISFGIGTFLTNDLANWRNAAGVEYRPLSIVIKLAECQGRPVAKISDQPEKAMCEDPIFLANLKRRFNIELDVDALIQELRHQKRSPRHYISAAEGHHHHHH”, for which the “soluble on expression in E. coli” value was “soluble”.

For “MVQDQLTSILTTVGLNLMAKLTDNSRSVVISPSEVALSVAKSTLKHCEPLPYELFQSDYESEFRELIEQLENFEAMKVNPSPPVWNFAISEFKKKNFKLSNGKLKKMNFIWINLETNMELSCEKTGAQMAQDKEFKVLSIPLAGDAGKFVVFFPENQEETIEESLKKLNTRKFQRLIDDLVPKFIHFEHPVFKIQSKFFISENLTMTDRGLTHEKEFEVCHGENNDFRRGLLMDRCEYVPYIFRVNRPFIFCVVQNGVPVTMGIFDGN”, the “soluble on expression in E. coli” value is recorded as “not soluble”.

As for “MSLKETEIIKLFQEELKSKVLGDDAGFIKLGDRWLLLTNDMLVWRTDVPDFMTPEEAGAKVVTMNVSDIAAMGGKPIGFFFSLGLPRDINEKTLREIAKGIKRGTKRYNVEVLSGDTNESNELVIDGGAIGEAERILLRSGAKPGEVVCVTGDLGRPLTALLLWLKGEKIPREIAEKMKNPIARVREGLELANYASSAIDISDGLSKELWEISKASKVKIVIDPNSLPVHEKVKEIVKNPVEVALASGEEFELVFTISQEYLDILSFEFSIIGRVEKGEGVYTTTGEKVPMRGWEHFAGGNNDIGSEGHHHHHH”, the “soluble on expression in E. coli” value was “soluble”.

“MAVTKELLQMDLYALLGIEEKAADKEVKKAYRQKALSCHPDKNPDNPRAAELFHQLSQALEVLTDAAARAAYDKVRKAKKQAAERTQKLDEKRKKVKLDLEARERQAQAQESEEEEESRSTRTLEQEIERLREEGSRQLEEQQRLIREQIRQERDQRLRGKAENTEGQGTPKLKLKWKCKKEDESKGGYSKDVLLRLLQKYGEVLNLVLSSKKPGTAVVEFATVKAAELAVQNEVGLVDNPLKISWLEGQPQDAVGRSHSGLSKGSVLSERDYESLVMMRMRQAAERQQLIARMQQEDQEGPPT”: the “soluble on expression in E. coli” value is “soluble”.

With “MTEIKYKVITKDAFALPYTIIKAKNQPTKGVIVYIHGGGLMFGKANDLSPQYIDILTEHYDLIQLSYRLLPEVSLDCIIEDVYASFDAIQSQYSNCPIFTFGRSSGAYLSLLIARDRDIDGVIDFYGYSRINTEPFKTTNSYYAKIAQSINETMIAQLTSPTPVVQDQIAQRFLIYVYARGTGKWINMINIADYTDSKYNIAPDELKTLPPVFIAHCNGDYDVPVEESEHIMNHVPHSTFERVNKNEHDFDRRPNDEAITIYRKVVDFLNAITMV”, the “soluble on expression in E. coli” value is “soluble”.

Turning to “GEASPVDPLRPVVDASIQPLLKEHRIPGMAVAVLKDGKAHYFNYGVANRESGAGVSEQTLFEIGSVSKTLTATLGAYAVVKGAMQLDDKASRHAPWLKGSAFDSITMGELATYSAGGLPLQFPEEVDSSEKMRAYYRQWAPVYSPGSHRQYSNPSIGLFGHLAASSLKQPFAPLMEQTLLPGLGMHHTYVNVPKQAMASYAYGYSKEDKPIRVNPGMLADEAYGIKTSSADLLRFVKANIGGVDDKALQQAISLTHQGHYSVGGMTQGLGWESYAYPVTEQTLLAGNSAKVILEANPTAAPRESGSQVLFNKTGSTNGFGAYVAFVPARGIGIVMLANRNYPIEARIKAAHAILAQLAG”, the “soluble on expression in E. coli” value is “soluble”.

In the case of “VDRLHIIGDIFDRGPRADIIMDKLEEYHAVDIQWGNHDILWMGAASGSSVCMANVIRISARYANLSTIEDGYGINLLPLATFAMDFYGNDKCKNFEPKIESDKSYTVKEIELIGKMHKAIAIIQFKLEGEAIKRHPEFKMEHRMLLNKINFEDSTIELDGKKYKLNDTSFPTIDKNDPYKLIDEEREVVEKLRSSFVNSEKLNRHVRFLFSHGNLYLKFNSNLLYHGCIPLNEDGTFKEVLIGSHKYKGKALLDKLDVLARKSFFYEENSKNSKYENDMIWYLWSGPFSPLFGKEKMTTFERYFIDDKKTHYEKKDPYYHYRDDEDICINILREFGLDSEQAHIINGHVPVESKNGENPIKANGKLIVIDGGFSKAYQSKTGIAGYTLIYNS”, the “soluble on expression in E. coli” value is “not soluble”.

“SLVGYSAVSQPSPASFLLGPTLPPAPSIAFRLWRPYSMTARITSVEALPYRLPLTSKLAWGAHSALSAAEHVLVRVTLSDGSVGVAEATPRPTIYGETPGSVTAILQHLEPALLGLDIADEAALNRVRGSVAGNHTARGALDMALWEARAASRGQSLFDTLLGPHERVRVSFILGIAPPAEMLAEAERVVAAGVRCLKVKVGRHAAQDLQVIAELRRRYGDDVQLYADSNETLTLEQAPDVLAAMREAGLMYVEEPLPARDLRARAALHAAGVLPIVADDSCFTPADLERELDFDTFDVLNVKTARNGFTDGLQMLRRAAEHGKRGMVGSQASTGLGTLHAALLSTQAEVTEPCELSFVLKLGDDLLNRPIEFQDGWLNVPELREHRLDEDKLARYRI”: the “soluble on expression in E. coli” value is recorded as “soluble”.

As to “MSLELPAEVQEMPIYREWISGILAGKIASPFWEMAQPQKNQHCLDIGCGVSFLIYPWRDWQAFFYGQDVSNVARDTLNSRGSQLNSKLFKGVELGAAHQLKYTLSYFDLAIATGFSCYFPLEYWTSVLQAVKRVLKPDGHFVFDILNAAHPQAEDWAVLETYLGAEVFLEPVTEWEKIINAAGAKVVGRQPGEFFDLYKLRLEHHHHHH”, the “soluble on expression in E. coli” value was “soluble”.

“GPGSMSMQQDFVHPRQLDDMRAIHAAINSFSGVMTKMMMLMKELGTTLEQVSHSFDALTSLTFTKDEVKQYVHKFGEEIISMKEGIAFCEYNKLVHEDVLHPVEQLKKSLKEAEQAAKAEKSAFEKYKKAKQRVDKQEKAFAEKSKPLDTSKSYPTHVQARNNALVSLQNCKSEFEERFVMLMNDVESVTSTALRRYLELNAGYMTSVVDALTKTDPTVGEAAVFYRQEKQAHRQSAVEQCCLQVNSDLSTAHASQGYRFDPSRMNGCLHDTIIFKRLPSRLRHSTGSRTRSLRVNRPAVE”: the “soluble on expression in E. coli” value is given as “soluble”.

Turning to “MSLKEAEVLKYEAFTSSPGKGNPAGVVLQGDDYTEDEMQIIAERAGYSETSFIRKSESADLELRYFTPGHEMNLCGHATVASLYALCEKGMLESGKTYSIQTKAGILPVKISEKDGRIHITLEQASPQFKPFTGDRKKLADALGITDEDFHEDLPIVFGSTGIWTAIVPLKSLEASKKMVPDNKQFPEVLVDLPKASVHPFTFETVHPDSDLHGRHFSSPYSGTIEDPVTGTASGVMGAYMKHYGNAEQHKFIIEQGQEIGKDGKVEIEMNEAGGHVKVNMTGTAVYSETRILKIEGGSHHHHHH”, the “soluble on expression in E. coli” value is “soluble”.

With “MAHHTKETMELIKELVSIPSPSGNTAKIINFIENYVSEWNVETKRNNKGALILTVKGKNDAQHRLLTAHVDTLGAMVKEIKPDGRLSLSMIGGFRWNSVEGEYCEIETSSGKTYTGTILMHQTSVHVYKDAGEAKRDEKNIEVRIDERVFSADEVRELGIEVGDFVSFDPRVQITESGYIKSRHLDDKVSVAILLKLIKRLQDENVTLPYTTHFLISNNEEIGYGGNSNIPEETVEYLAVDMGALGDGQASDEYTVSICAKDSSGPYHYALRKHLVELAKTNHIEYKVDIYPYYGSDASAAIRAGFDVKHALIGAGIDSSHAFERTHESSIAHTEALVYAYVMSNLIEE”, the “soluble on expression in E. coli” value is recorded as “soluble”.

Consider “MLALFYNKKLFEQAGLTKPPETWDELLEYAKIITEKTGKPGLAIYLGGFNRYVPVAVSNGAPKPWFEKPEDASWFDNPVVRETLTWYINLYRKGKVEREKKGLPPYVVAPEDVGAGWLGDAFGQQKVAMVISGNWMIPFLADQFPNFKYGEDWDIAPLPAGKNGRVTMVYTVILGINSKTKHPKEAWKFVEFILGPRGQKELVVKAGQTLPSMKGFENDP”, for which the “soluble on expression in E. coli” value is given as “not soluble”.

On to “MSRIVNVKLSLKRYEYEKPFHITGSVSSESRNVEVEIVLESGVKGYGEASPSFRVNGERVEALLAIENAVREMITGIDVRNYARIFEITDRLFGFPSLKAAVQFATLDALSQELGTQVCYLLGGKRDEIETDKTVGIDTVENRVKEAKKIFEEGFRVIKIKVGENLKEDIEAVEEIAKVTRGAKYIVDANMGYTQKEAVEFARAVYQKGIDIAVYEQPVRREDIEGLKFVRFHSPFPVAADESARTKFDVMRLVKEEAVDYVNIKLMKSGISDALAIVEIAESSGLKLMIGCMGESSLGINQSVHFALGTGAFEFHDLDSHLMLKEEVFRGKFIQDGPRMRVKDQ”, for which the “soluble on expression in E. coli” value is reported as “soluble”.

The values are drawn from the DeepSol protein solubility set.
